The source of these data is patent US20230381333A1 (HANMI PHARM, published 2023).

Bridge positions count the residues as written; N and C are the ends. Square brackets hold non-standard residues; d marks the D form. Ends that are not written are not given here. * marks the point of attachment. Acetyl(2-(4-imidazolyl)) = O=C(Cc1c[nH]cn1)*; Aib = CC(C)(N)C(=O)O Some results are limits rather than exact numbers.

Experiment in all cases: cell-based or functional assay
One test has as its target human GCG receptor (human, UniProt P47871 26-477).
The next test addresses human GLP-1 receptor (human, UniProt P43220 24-463).
The next test concerns the target T1, human GIP receptor (human, UniProt P48546 22-466).
T1 sequence (looked up): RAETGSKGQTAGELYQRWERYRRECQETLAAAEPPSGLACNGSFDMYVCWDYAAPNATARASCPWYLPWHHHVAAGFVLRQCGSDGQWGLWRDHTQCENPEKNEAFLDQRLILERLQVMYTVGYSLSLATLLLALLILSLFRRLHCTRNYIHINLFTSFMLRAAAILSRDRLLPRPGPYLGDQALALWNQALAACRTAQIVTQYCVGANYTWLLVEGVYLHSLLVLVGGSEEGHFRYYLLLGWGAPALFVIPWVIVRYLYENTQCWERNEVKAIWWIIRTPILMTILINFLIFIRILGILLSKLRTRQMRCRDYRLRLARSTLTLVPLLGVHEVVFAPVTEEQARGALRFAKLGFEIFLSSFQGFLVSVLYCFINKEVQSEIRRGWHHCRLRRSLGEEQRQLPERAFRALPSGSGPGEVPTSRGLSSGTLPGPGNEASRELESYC

Sequence of human GCG receptor (P47871 26-477): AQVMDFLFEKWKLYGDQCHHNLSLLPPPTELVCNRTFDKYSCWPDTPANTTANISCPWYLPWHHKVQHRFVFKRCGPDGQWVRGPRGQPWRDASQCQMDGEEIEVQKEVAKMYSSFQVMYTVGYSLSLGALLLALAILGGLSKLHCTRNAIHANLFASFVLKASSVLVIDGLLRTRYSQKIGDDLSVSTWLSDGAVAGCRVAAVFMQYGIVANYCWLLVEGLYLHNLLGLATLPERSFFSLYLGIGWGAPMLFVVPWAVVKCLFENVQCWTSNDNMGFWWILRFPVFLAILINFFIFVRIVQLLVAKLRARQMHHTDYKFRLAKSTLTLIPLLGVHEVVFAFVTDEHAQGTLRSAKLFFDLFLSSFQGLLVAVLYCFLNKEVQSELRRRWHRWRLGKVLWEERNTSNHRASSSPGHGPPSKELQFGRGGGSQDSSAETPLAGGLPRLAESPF

For the molecule [Acetyl(2-(4-imidazolyl))][Aib]QGTFTSDYSICMDEIHQKDFVNWLLNTK (bridge 16-20) [triple agonist of SEQ ID NO: 49], the “In vitro activity compared to native-type peptide (%), vs Glucagon” value (“In vitro activity … (%), vs Glucagon” for short) with human GCG receptor is < 0.1%. The “In vitro activity compared to native-type peptide (%), vs GLP-1” value (“In vitro activity … (%), vs GLP-1” below) with human GLP-1 receptor was 29.8%. Besides, the “In vitro activity compared to native-type peptide (%), vs GIP” value (“In vitro activity … (%), vs GIP” for short) with human GIP receptor was found to be 3.3%.

Turning to H[Aib]QGTFTSDKSKYLDERACQDFVQWLLDGGPSSGAPPPS [triple agonist of SEQ ID NO: 40], the “In vitro activity … (%), vs Glucagon” value with human GCG receptor was < 0.1%. Moreover, the “In vitro activity … (%), vs GLP-1” value with human GLP-1 receptor was 75.2%. Moreover, in the test with human GIP receptor, the “In vitro activity … (%), vs GIP” value was < 0.1%.

With H[Aib]QGTFTSDVSSYLLGQQQKEFIAWLVKGC [triple agonist of SEQ ID NO: 4], the “In vitro activity … (%), vs Glucagon” value with human GCG receptor is < 0.1%. In the test with human GLP-1 receptor, the “In vitro activity … (%), vs GLP-1” value came to 8.5%. The “In vitro activity … (%), vs GIP” value in the test with human GIP receptor was < 0.1%.

In the case of H[Aib]QGTFTSDYSKYLDEKRAKEFVQWLLDHHPSSGQPPPSC (bridge 16-20) [triple agonist of SEQ ID NO: 50], the “In vitro activity … (%), vs Glucagon” value with human GCG receptor stood at 50.5%. In addition, the “In vitro activity … (%), vs GLP-1” value with human GLP-1 receptor came to 67.4%. Also, the “In vitro activity … (%), vs GIP” value with human GIP receptor turned out to be 2.7%.

Turning to Y[Aib]QGTFTSDYSKYLDEKRAKEFVQWLLDHHCSSGQPPPS (bridge 16-20) [triple agonist of SEQ ID NO: 43], the “In vitro activity … (%), vs Glucagon” value in the test with human GCG receptor turned out to be 88.4%. In addition, the “In vitro activity … (%), vs GLP-1” value with human GLP-1 receptor came to 12.6%. For the same molecule, the “In vitro activity … (%), vs GIP” value with human GIP receptor is 3.7%.

As for H[Aib]QGTFTSDYSKYLDEKRQKEFVQWLLDTC (bridge 16-20) [triple agonist of SEQ ID NO: 52], in the test with human GCG receptor, the “In vitro activity … (%), vs Glucagon” value was determined as 7.5%. For the same molecule, the “In vitro activity … (%), vs GLP-1” value with human GLP-1 receptor is 44.1%. Also, in the test with human GIP receptor, the “In vitro activity … (%), vs GIP” value was 0.3%.

For the molecule H[Aib]QGTFTSDYSKYLDGQHAQCFVAWLLAGGGPSSGAPPPS [triple agonist of SEQ ID NO: 39], in the test with human GCG receptor, the “In vitro activity … (%), vs Glucagon” value stood at 0.53%. In addition, the “In vitro activity … (%), vs GLP-1” value with human GLP-1 receptor turned out to be 13.9%. Also, the “In vitro activity … (%), vs GIP” value in the test with human GIP receptor is < 0.1%.

Regarding Y[Aib]QGTFTSDYSKYLDEKRAKEFVQWLLDHHPSSGQPPPSC (bridge 16-20) [triple agonist of SEQ ID NO: 42], the “In vitro activity … (%), vs Glucagon” value with human GCG receptor worked out at 206%. For the same molecule, the “In vitro activity … (%), vs GLP-1” value in the test with human GLP-1 receptor was 33.9%. The “In vitro activity … (%), vs GIP” value with human GIP receptor turned out to be 7.8%.

Consider H[Aib]QGTFTSDYSIAMDEIHQKDFVNWLLNTKC (bridge 16-20) [triple agonist of SEQ ID NO: 35], for which the “In vitro activity … (%), vs Glucagon” value with human GCG receptor is < 0.1%. Also, in the test with human GLP-1 receptor, the “In vitro activity … (%), vs GLP-1” value was 7.5%. Besides, the “In vitro activity … (%), vs GIP” value with human GIP receptor was 1.3%.

As to H[Aib]QGTFTSDVSSYLDGQAAKEFIAWLVKGC [triple agonist of SEQ ID NO: 1], the “In vitro activity … (%), vs Glucagon” value with human GCG receptor was < 0.1%. Also, in the test with human GLP-1 receptor, the “In vitro activity … (%), vs GLP-1” value came to 3.2%. The “In vitro activity … (%), vs GIP” value with human GIP receptor is < 0.1%.

With H[Aib]EGTFTSDYSIAMDEIHQKDFVNWLLAQC (bridge 16-20) [triple agonist of SEQ ID NO: 53], in the test with human GCG receptor, the “In vitro activity … (%), vs Glucagon” value was 8.4%. For the same molecule, in the test with human GLP-1 receptor, the “In vitro activity … (%), vs GLP-1” value came to 161%. Besides, in the test with human GIP receptor, the “In vitro activity … (%), vs GIP” value came out at 1.3%.

For the molecule H[Aib]QGTFTSDYSKYLDEKRQKEFVNWLLAQC (also: ring formation (underlined residues), positions not given here) [triple agonist of SEQ ID NO: 56], the “In vitro activity … (%), vs Glucagon” value with human GCG receptor was 4.9%. Also, in the test with human GLP-1 receptor, the “In vitro activity … (%), vs GLP-1” value came to 57.9%. Also, in the test with human GIP receptor, the “In vitro activity … (%), vs GIP” value was 0.8%.

For the molecule H[Aib]QGTFTSDYSKYLCEKRQKEFVQWLLNGGPSSGAPPPSG (bridge 16-20) [triple agonist of SEQ ID NO: 36], the “In vitro activity … (%), vs Glucagon” value in the test with human GCG receptor stood at 0.39%. The “In vitro activity … (%), vs GLP-1” value in the test with human GLP-1 receptor is 37.4%. For the same molecule, in the test with human GIP receptor, the “In vitro activity … (%), vs GIP” value amounted to 0.2%.

Take H[Aib]QGTFTSDYSIAMDEIHQKDFVNWLLAQC (bridge 16-20) [triple agonist of SEQ ID NO: 55]: the “In vitro activity … (%), vs Glucagon” value with human GCG receptor stood at 0.7%. The “In vitro activity … (%), vs GLP-1” value with human GLP-1 receptor was determined as 27.1%. Further, in the test with human GIP receptor, the “In vitro activity … (%), vs GIP” value came to 2.4%.

Turning to H[Aib]QGTFTSDVSSYLDGQAAKEFVAWLLKGC [triple agonist of SEQ ID NO: 6], the “In vitro activity … (%), vs Glucagon” value in the test with human GCG receptor is < 0.1%. Moreover, the “In vitro activity … (%), vs GLP-1” value in the test with human GLP-1 receptor stood at 17%. In addition, in the test with human GIP receptor, the “In vitro activity … (%), vs GIP” value was < 0.1%.

As for H[Aib]QGTFTSDYSKYLDEKRQKEFVNWLLAQKC (bridge 16-20) [triple agonist of SEQ ID NO: 34], the “In vitro activity … (%), vs Glucagon” value with human GCG receptor is 0.92%. Besides, the “In vitro activity … (%), vs GLP-1” value with human GLP-1 receptor turned out to be 19.1%. The “In vitro activity … (%), vs GIP” value in the test with human GIP receptor came to 0.6%.

As for H[Aib]QGTFTSDYSKYLDECRQKEFVQWLLNGGPSSGAPPPSG (bridge 16-20) [triple agonist of SEQ ID NO: 37], the “In vitro activity … (%), vs Glucagon” value with human GCG receptor amounted to 6.21%. In addition, the “In vitro activity … (%), vs GLP-1” value with human GLP-1 receptor stood at 236%. The “In vitro activity … (%), vs GIP” value in the test with human GIP receptor is 2.2%.

In the case of HGQGTFTSDCSKQLDGQAAQEFVAWLLAGGPSSGAPPPS [triple agonist of SEQ ID NO: 44], the “In vitro activity … (%), vs Glucagon” value with human GCG receptor was < 0.1%. Besides, the “In vitro activity … (%), vs GLP-1” value with human GLP-1 receptor was 1.3%. The “In vitro activity … (%), vs GIP” value with human GIP receptor is < 0.1%.

For the molecule HGQGTFTSDCSKYLDGQRAQEFVAWLLAGGPSSGAPPPS [triple agonist of SEQ ID NO: 47], in the test with human GCG receptor, the “In vitro activity … (%), vs Glucagon” value is < 0.1%. In addition, the “In vitro activity … (%), vs GLP-1” value with human GLP-1 receptor is 2.4%. For the same molecule, the “In vitro activity … (%), vs GIP” value with human GIP receptor was < 0.1%.

Regarding HGQGTFTSDCSKYMDGQAAQDFVAWLLAGGPSSGAPPPS [triple agonist of SEQ ID NO: 45], in the test with human GCG receptor, the “In vitro activity … (%), vs Glucagon” value is < 0.1%. Moreover, the “In vitro activity … (%), vs GLP-1” value with human GLP-1 receptor came out at 6.6%. Moreover, the “In vitro activity … (%), vs GIP” value with human GIP receptor is < 0.1%.

Take HGQGTFTSDCSKYLDEQHAQEFVAWLLAGGPSSGAPPPS [triple agonist of SEQ ID NO: 46]: the “In vitro activity … (%), vs Glucagon” value with human GCG receptor was < 0.1%. Also, in the test with human GLP-1 receptor, the “In vitro activity … (%), vs GLP-1” value worked out at 1.4%. For the same molecule, the “In vitro activity … (%), vs GIP” value with human GIP receptor was < 0.1%.

Turning to HGQGTFTSDCSKYLDGQRAQDFVNWLLAGGPSSGAPPPS [triple agonist of SEQ ID NO: 48], the “In vitro activity … (%), vs Glucagon” value with human GCG receptor is < 0.1%. Moreover, the “In vitro activity … (%), vs GLP-1” value with human GLP-1 receptor was 1.5%. The “In vitro activity … (%), vs GIP” value with human GIP receptor was < 0.1%.

Turning to H[Aib]QGTFTSDYSKYLDEKRQKEFVQWLLNTC (bridge 16-20) [triple agonist of SEQ ID NO: 51], the “In vitro activity … (%), vs Glucagon” value with human GCG receptor was determined as 2%. The “In vitro activity … (%), vs GLP-1” value with human GLP-1 receptor amounted to 14.4%. In addition, in the test with human GIP receptor, the “In vitro activity … (%), vs GIP” value turned out to be 0.1%.

Regarding H[Aib]EGTFTSDYSIAMDEIHQKDFVDWLLAEC (bridge 16-20) [triple agonist of SEQ ID NO: 54], in the test with human GCG receptor, the “In vitro activity … (%), vs Glucagon” value was 1.4%. Also, the “In vitro activity … (%), vs GLP-1” value with human GLP-1 receptor was 30.6%. Moreover, the “In vitro activity … (%), vs GIP” value in the test with human GIP receptor stood at 0.1%.

On to H[Aib]QGTFTSDKSKYLDECAAQDFVQWLLDGGPSSGAPPPS [triple agonist of SEQ ID NO: 41], for which, in the test with human GCG receptor, the “In vitro activity … (%), vs Glucagon” value was < 0.1%. For the same molecule, the “In vitro activity … (%), vs GLP-1” value with human GLP-1 receptor was 34.3%. In the test with human GIP receptor, the “In vitro activity … (%), vs GIP” value is < 0.1%.

Consider H[Aib]QGTFTSDVSSYLLGQQQKEFIAWLVKGGGPSSGAPPPSC [triple agonist of SEQ ID NO: 5], for which, in the test with human GCG receptor, the “In vitro activity … (%), vs Glucagon” value was < 0.1%. Besides, the “In vitro activity … (%), vs GLP-1” value with human GLP-1 receptor came to 42.1%. The “In vitro activity … (%), vs GIP” value with human GIP receptor is < 0.1%.

[Acetyl(2-(4-imidazolyl))][Aib]QGTFTSDKSSYLDERAAQDFVQWLLDGGPSSGAPPPSS [triple agonist of SEQ ID NO: 38]: the “In vitro activity … (%), vs GLP-1” value with human GLP-1 receptor was 2.3%.
